This experiment has as its target T1, digoxigenin (DIG)-labeled recombinant human PCNA (human, UniProt P12004 1-261, digoxigenin label (DIG Protein Labeling Kit); labeled residues not stated).
T1 construct: proliferating cell nuclear antigen (PCNA), human, recombinant wild type; Same protein as m1, chemically labeled with digoxigenin and used as the probe in the overlay; also called PCNA-DIG; DIG-labeled PCNA
Put plainly: far-Western, overlay or dot blot; Increasing amounts of non-tagged p50 or purified pol δ4 run on 12% SDS-PAGE and transferred to nitrocellulose; probed with DIG-labeled PCNA in PBS for one hour (1:10,000 dilution of 0.15 mg/ml stock); detected with Anti-DIG-HRP and ECL; films for p50 slightly overexposed. Conditions: both partners purified.

Here are results for one molecule from PMC3206906, “P50, the Small Subunit of DNA Polymerase Delta, Is Required for Mediation of the Interaction of Polymerase Delta Subassemblies with PCNA” (PLoS ONE, 2011).

T1 sequence (P12004 whole entry): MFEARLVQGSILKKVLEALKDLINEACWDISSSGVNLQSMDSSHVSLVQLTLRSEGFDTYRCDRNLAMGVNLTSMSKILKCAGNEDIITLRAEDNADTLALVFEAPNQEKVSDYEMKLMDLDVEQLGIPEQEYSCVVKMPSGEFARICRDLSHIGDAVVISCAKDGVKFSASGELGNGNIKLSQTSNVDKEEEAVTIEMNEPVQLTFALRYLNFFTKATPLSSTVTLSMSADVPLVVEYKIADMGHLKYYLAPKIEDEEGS

B1: p12 subunit of recombinant human DNA polymerase δ four-subunit complex (natural protein, UniProt Q9HCU8 1-107, looked up)
chain: MGRKRLITDSYPVVKRREGPAGHSKGELAPELGEEPQPRDEEEAELELLRQFDLAWQYGPCTGITRLQRWCRAKQMGLEPPPEVWQVLKTHPGDPRFQCSLWHLYPL
notes: also called pol δ4 subunit p12; source: Bombyx mori (silkworm) bioreactor, purified as the pol δ four-subunit complex, resolved by SDS-PAGE
On to B1, for which the binding result was “binds”.
